Data reported in publication PMC8800115 (2021).

Biological target: K63-linked tetraubiquitin (UniProt P0CG48 1-76, G76 to K63 isopeptide bonds between adjacent ubiquitins)
Experiment: ITC

B1: ASCC2 CUE domain (construct of the ITC experiments of Figure 2) (domain or fragment)
chain: AAVGPAMCGVELDSLISQVKDLLPDLGEGFILACLEYYHYDPEQVINNILEERLAPTLSQLDRNLDREM
Kd: 2100 nM
